Experimental findings from patent publication US20100074886A1, “CCR2 ANTAGONISTS FOR TREATMENT OF FIBROSIS” (priority 2006, published 2010) are described below.

For this assay, the target named is Human MCP-1 (CCL2), monocyte chemoattractant protein 1 (human), P13500. In words: cell-based or functional assay.
Sequence of Human MCP-1 (CCL2), monocyte chemoattractant protein 1 (human), P13500 (P13500 24-99): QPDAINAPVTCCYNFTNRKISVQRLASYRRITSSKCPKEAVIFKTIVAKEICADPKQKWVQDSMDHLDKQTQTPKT

B1: CCL2-neutralizing antibody CNTO888 (antibody, V domains shown)
VH: QVQLVQSGAEVKKPGSSVKVSCKASGGTFSSYGISWVRQAPGQGLEWMGGIIPIFGTANYAQKFQGRVTITADESTSTAYMELSSLRSEDTAVYYCARYDGIYGELDFWGQGTLVTVSS
VL: not shown
modifications: not checked
B1 gave a CCL2 gene expression in fibrotic cell line 126, percent of untreated cell level (percent of untreated cell level) of 2; a CXCL5 gene expression in fibrotic cell line 126, percent of untreated cell level (percent of untreated cell level) of under 1; a CXCL5 protein level in supernatant of fibrotic cell line 126 with Anti-CCL2 of 32; a CXCL5 protein, percent of untreated (percent of untreated) of under 1. The molecule also returned a G-CSF protein level in supernatant of fibrotic cell line 126 with Anti-CCL2 of 1; a G-CSF protein, percent of untreated (percent of untreated) of under 1; an IL6 gene expression in fibrotic cell line 126, percent of untreated cell level (percent of untreated cell level) of under 1; an IL6 protein level in supernatant of fibrotic cell line 126 with Anti-CCL2 of 40. This molecule also registered an IL6 protein, percent of untreated (percent of untreated) of under 1; an IL8 protein level in supernatant of fibrotic cell line 126 with Anti-CCL2 of 308; an IL8 protein, percent of untreated (percent of untreated) of 2; an IL13Ra2 gene expression in fibrotic cell line 126, percent of untreated cell level (percent of untreated cell level) of 5. The molecule further returned a VEGF protein level in supernatant of fibrotic cell line 126 with Anti-CCL2 of 175; a VEGF protein, percent of untreated (percent of untreated) of 23; a fold reduction of G-CSF protein with CNTO 888 of 6800 fold; a fold reduction of VEGF protein with CNTO 888 of 4 fold.
